Values of other authors as cited in publication PMC5840170.
Like-named read-outs stand apart in the source and are kept apart here.

Columns and labels:
VPS4 MIT (Homo sapiens) [1] = target: VPS4 MIT (Homo sapiens) (UniProt Q9UN37)
VPS4 (Homo sapiens) = VPS4 (Homo sapiens) (UniProt Q9UN37)
VPS4 MIT (Homo sapiens) [2] = target: VPS4 MIT (Homo sapiens) (UniProt Q9UN37); remark: listed apart in the source
[3] = target: CdvC MIT domain (Sulfolobus acidocaldarius) (UniProt F2Z6D2)
[4] = target: EAP20 (Vps25) winged helix (wH) (Homo sapiens) (UniProt Q9BRG1)
[5] = target: Vps4 (Saccharomyces cerevisiae) (UniProt P52917)
[6] = target: CdvC MIT domain (Sulfolobus acidocaldarius) (UniProt F2Z6D2); remark: listed apart in the source
[7] = target: CdvB wH domain (Sulfolobus acidocaldarius) (UniProt Q4J924)
[8] = target: CdvC MIT (Sulfolobus acidocaldarius) (UniProt F2Z6D2)
[9] = target: CdvB wH domain (Sulfolobus acidocaldarius) (UniProt Q4J924); remark: listed apart in the source
[10] = target: CdvC MIT domain (Sulfolobus acidocaldarius) (UniProt F2Z6D2); remark: listed apart in the source
EAP20 (Homo sapiens) = EAP20 (Homo sapiens) (UniProt Q9BRG1)
[11] = target: ESCRT-III subunit (Vps2) α5 helix (Saccharomyces cerevisiae) (UniProt P36108)
[12] = target: Vps4 MIT (Saccharomyces cerevisiae) (UniProt P52917)
[13] = target: CdvC MIT (Sulfolobus acidocaldarius) (UniProt F2Z6D2); remark: listed apart in the source
VPS4 MIT (Homo sapiens) [14] = target: VPS4 MIT (Homo sapiens) (UniProt Q9UN37); remark: listed apart in the source

Sequence of VPS4 MIT (Homo sapiens) (Q9UN37 1-83): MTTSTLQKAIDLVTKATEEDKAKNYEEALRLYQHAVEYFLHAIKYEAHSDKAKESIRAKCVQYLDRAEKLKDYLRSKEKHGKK
Sequence of CdvC MIT domain (Sulfolobus acidocaldarius) (F2Z6D2 8-76): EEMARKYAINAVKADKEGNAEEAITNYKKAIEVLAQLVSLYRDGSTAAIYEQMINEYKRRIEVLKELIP
Sequence of CdvC MIT (Sulfolobus acidocaldarius) (F2Z6D2 8-76): as above
Sequence of CdvB wH domain (Sulfolobus acidocaldarius) (Q4J924 213-261): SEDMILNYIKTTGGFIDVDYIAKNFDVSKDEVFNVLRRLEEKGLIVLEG
Sequence of Vps2 MIM1 (P36108 211-232): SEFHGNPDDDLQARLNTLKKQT
Sequence of CdvA E3B peptide (Q4J923 214-238): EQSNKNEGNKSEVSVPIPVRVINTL
Sequence of EAP20 (Homo sapiens) (Q9BRG1 whole entry): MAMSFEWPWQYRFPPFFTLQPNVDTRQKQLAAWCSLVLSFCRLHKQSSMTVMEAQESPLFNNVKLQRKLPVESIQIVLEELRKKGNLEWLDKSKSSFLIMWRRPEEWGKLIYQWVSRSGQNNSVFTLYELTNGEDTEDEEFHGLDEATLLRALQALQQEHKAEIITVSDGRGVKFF
Sequence of CdvB1 C-terminus (Q4JBG6 195-214): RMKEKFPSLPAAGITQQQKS
Sequence of Vps4 MIT (Saccharomyces cerevisiae) (P52917 1-83): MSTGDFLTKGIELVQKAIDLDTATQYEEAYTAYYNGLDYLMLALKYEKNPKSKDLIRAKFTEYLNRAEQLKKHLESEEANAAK
Sequence of Vps2 (P36108 whole entry): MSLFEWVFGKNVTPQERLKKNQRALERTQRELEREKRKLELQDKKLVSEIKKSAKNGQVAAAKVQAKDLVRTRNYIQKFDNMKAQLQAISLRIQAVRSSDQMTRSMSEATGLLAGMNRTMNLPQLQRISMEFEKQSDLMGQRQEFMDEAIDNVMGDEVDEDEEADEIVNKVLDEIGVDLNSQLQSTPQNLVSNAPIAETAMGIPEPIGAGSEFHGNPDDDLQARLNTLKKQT
Sequence of CdvA E3B (Q4J923 216-238): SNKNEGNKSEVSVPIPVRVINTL
Sequence of VPS4 (Homo sapiens) (Q9UN37 whole entry): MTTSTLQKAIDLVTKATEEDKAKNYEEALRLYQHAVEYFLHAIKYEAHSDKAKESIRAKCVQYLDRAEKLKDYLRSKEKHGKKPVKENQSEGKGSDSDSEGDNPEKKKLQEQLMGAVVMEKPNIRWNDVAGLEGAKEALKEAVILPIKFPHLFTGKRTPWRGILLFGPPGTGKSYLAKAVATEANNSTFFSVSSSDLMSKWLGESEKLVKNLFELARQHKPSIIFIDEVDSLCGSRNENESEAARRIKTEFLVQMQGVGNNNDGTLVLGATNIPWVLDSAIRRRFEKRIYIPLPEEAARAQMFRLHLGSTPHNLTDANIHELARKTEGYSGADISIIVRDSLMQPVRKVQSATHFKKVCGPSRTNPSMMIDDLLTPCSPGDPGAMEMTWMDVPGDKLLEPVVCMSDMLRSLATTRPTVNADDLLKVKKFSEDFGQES
Sequence of Vps4 (Saccharomyces cerevisiae) (P52917 whole entry, the tested form may be a part): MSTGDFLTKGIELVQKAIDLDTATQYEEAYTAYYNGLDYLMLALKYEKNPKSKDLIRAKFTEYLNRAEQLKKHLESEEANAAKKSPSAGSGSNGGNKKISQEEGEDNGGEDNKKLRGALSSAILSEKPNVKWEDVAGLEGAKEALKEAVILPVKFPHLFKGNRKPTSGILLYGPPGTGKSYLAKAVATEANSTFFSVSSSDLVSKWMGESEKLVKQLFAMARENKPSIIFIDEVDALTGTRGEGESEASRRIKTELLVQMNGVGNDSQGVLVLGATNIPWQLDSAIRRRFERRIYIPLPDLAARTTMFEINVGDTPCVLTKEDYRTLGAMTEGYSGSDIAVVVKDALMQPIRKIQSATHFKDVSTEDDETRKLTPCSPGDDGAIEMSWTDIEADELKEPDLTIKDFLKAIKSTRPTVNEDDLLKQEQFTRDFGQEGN
Sequence of Vps4 central pore loops (P52917 whole entry, looked up): as the sequence (P52917 whole entry, the tested form may be a part) above
Sequence of CdvB 177-261 (Q4J924 177-261): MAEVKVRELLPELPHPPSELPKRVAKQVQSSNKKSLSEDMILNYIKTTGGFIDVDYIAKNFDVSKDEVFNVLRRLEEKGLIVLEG
Sequence of CHMP4 (Q9H444 2-224): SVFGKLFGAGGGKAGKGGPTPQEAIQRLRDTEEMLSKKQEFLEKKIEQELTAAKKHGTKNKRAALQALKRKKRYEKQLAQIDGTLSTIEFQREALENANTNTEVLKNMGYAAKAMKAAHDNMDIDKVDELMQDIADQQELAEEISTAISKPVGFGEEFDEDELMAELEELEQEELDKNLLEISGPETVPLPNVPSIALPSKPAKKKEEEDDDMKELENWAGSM
Sequence of CHMP6 (Vps20) (Q96FZ7 2-201): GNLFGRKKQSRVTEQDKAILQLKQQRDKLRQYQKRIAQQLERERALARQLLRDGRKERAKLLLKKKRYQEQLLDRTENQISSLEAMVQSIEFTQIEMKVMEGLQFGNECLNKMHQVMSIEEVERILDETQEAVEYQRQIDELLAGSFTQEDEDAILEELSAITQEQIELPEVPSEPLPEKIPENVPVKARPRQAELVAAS
Sequence of CHMP6 (Q96FZ7 2-201): as above
Sequence of ESCRT-III subunit (Vps2) α5 helix (Saccharomyces cerevisiae) (P36108 165-184): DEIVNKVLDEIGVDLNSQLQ
Sequence of CdvB2 C-terminus (Q4J8Y4 200-219): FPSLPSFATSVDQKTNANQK
Sequence of EAP20 (Vps25) winged helix (wH) (Homo sapiens) (Q9BRG1 102-176): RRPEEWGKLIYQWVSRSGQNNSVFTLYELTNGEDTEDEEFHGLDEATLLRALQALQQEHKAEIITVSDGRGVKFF

In the case of CHMP1A MIM1 (from UniProt Q9HD42), the Kd (VPS4 MIT (Homo sapiens) [1]) is given as 4.5 µM and the Kd (VPS4 (Homo sapiens)) is given as 4.5 µM.
For CHMP4 (from UniProt Q9H444), the Kd (VPS4 MIT (Homo sapiens) [2]) is given as over 100 µM.
For CdvB 177-261 (from UniProt Q4J924), the Kd [3] is given as 30 µM.
In the case of CHMP6 (Vps20) (from UniProt Q96FZ7), the Kd [4] is given as 7 µM.
In the case of Vps2 (from UniProt P36108), the Kd [5] is given as 30 µM.
For CdvB2 C-terminus (from UniProt Q4J8Y4), the Kd [6] is given as over 100 µM.
In the case of CdvA E3B peptide (from UniProt Q4J923), the Kd [7] is listed as 6 µM.
For “CdvB1 C-terminus peptide (from UniProt Q4JBG6)”, the Kd [8] is listed as over 100 µM.
For CdvA E3B (from UniProt Q4J923), the Kd [9] is given as 6 µM.
In the case of CdvB1 C-terminus (from UniProt Q4JBG6), the Kd [10] is listed as over 100 µM.
For CHMP6 (from UniProt Q96FZ7), the Kd (EAP20 (Homo sapiens)) is given as 7 µM.
For “Vps4 central pore loops (from UniProt P52917)”, the Kd [11] is listed as 2 µM.
In the case of Vps2 MIM1 (from UniProt P36108), the Kd [12] is given as 30 µM.
In the case of “CdvB2 C-terminus peptide (from UniProt Q4J8Y4)”, the Kd [13] is listed as over 100 µM.
For CHMP6 MIM2 (from UniProt Q96FZ7), the Kd (VPS4 MIT (Homo sapiens) [14]) is given as 30 µM.
